From paper PMC3063768 come the findings set out here.

The target of assay [1] is CA of isolated HIV-1 A14C/E45C cores (HIV-1). Briefly: cross-linking; isolated HIV-1 cores with double-cysteine mutant CA, with or without oxidizer; non-reducing SDS-PAGE, immunoblotting with rabbit anti-CA serum. On the technique in general: A western blot detects proteins with antibodies after separation by electrophoresis.
Assay [2] has as its target HIV-1 CA P207C/T216C, tubular assemblies, non-oxidized (HIV-1). Briefly: cross-linking; preassembled double-cysteine mutant CA tubes oxidized with CuSO4/1,10-phenanthroline for 5 seconds, quenched with iodoacetamide and neocuproine; non-reducing SDS-PAGE, Coomassie Blue; with or without prior TRIM5α CC-SPRY (18 µM).
The target of assay [3] is HIV-1 capsid-nucleocapsid (CA-NC), preassembled tubular assemblies (HIV-1). As to the kind of experiment: co-sedimentation; preassembled CA-NC tubes (2 mg/ml or 10 µM, with TG50 oligonucleotide) incubated with TRIM5α CC-SPRY (0-20 µM) 1 hr at room temperature; pelleted at 20,000 g 15 min; SDS-PAGE, Coomassie Blue, gel densitometry of pellet.
Assay [4] concerns the target HIV-1 capsid protein (CA), wild type, preassembled tubular assemblies (HIV-1). Briefly: co-sedimentation; preassembled wild-type CA tubes (64 µM) incubated with TRIM5α CC-SPRY (0-20 µM) 1 hr at room temperature in 10 mM Tris pH 7.5, 330 mM NaCl, 1 mM TCEP, 5% glycerol; pelleted at 20,000 g 15 min; SDS-PAGE, Coomassie Blue, gel densitometry of pellet.
Assay [5] deals with CA of isolated HIV-1 P207C/T216C cores, without oxidizer (HIV-1). As to the kind of experiment: cross-linking; isolated HIV-1 cores with double-cysteine mutant CA, with or without oxidizer; non-reducing SDS-PAGE, immunoblotting with rabbit anti-CA serum.
Assay [6] concerns the target HIV-1 CA A14C/E45C, tubular assemblies (HIV-1). Briefly: cross-linking; preassembled double-cysteine mutant CA tubes oxidized with CuSO4/1,10-phenanthroline for 5 seconds, quenched with iodoacetamide and neocuproine; non-reducing SDS-PAGE, Coomassie Blue; with or without prior TRIM5α CC-SPRY (18 µM).

Turning to “CA of isolated HIV-1 A14C/E45C cores (natural protein)”, in assay [1], the stoichiometry N was 6.
In turn, “HIV-1 CA P207C/T216C, tubular assemblies, non-oxidized (natural protein)” yielded a stoichiometry N in assay [2] of 3.
On to “Rhesus macaque TRIM5α coiled-coil and SPRY domains (TRIM5αrh CC-SPRY, residues 134–497) (from UniProt Q0PF16 134-497) (domain or fragment)”, for which, in assay [3], the binding ratio (molar ratio of bound TRIM5αrh CC-SPRY to CA-NC in the pellet) at 1 µM TRIM5αrh CC-SPRY and 10 µM CA-NC came out at 0.034 molar ratio; the binding ratio (molar ratio of bound TRIM5αrh CC-SPRY to CA-NC in the pellet) at 18 µM TRIM5αrh CC-SPRY was 0.21 molar ratio. The binding ratio (molar ratio of bound TRIM5αrh CC-SPRY to CA in the pellet) at 18 µM TRIM5αrh CC-SPRY in assay [4] came to 0.41 molar ratio.
Consider “CA of isolated HIV-1 P207C/T216C cores, without oxidizer (natural protein)”, for which the stoichiometry N in assay [5] came out at 3.
Turning to “HIV-1 CA A14C/E45C, tubular assemblies (natural protein)”, the stoichiometry N in assay [6] came to 6.

A word on the stoichiometry N: it is a count of units in the complex or per binding partner.
